What was measured:
[1] = biological target: T1, TNFα (UniProt P01375 77-233); assay: ELISA, coated TNFα
Experimental: (§1) In this experiment, ELISA was used to assess the binding ability of monoclonal antibodies to TL1A homologous molecules. Representative members of the TNF ligand superfamily, TNFα, LT-α, LIGHT and FASL, were selected for binding testing. 1 μg/mL of TNFα, LT-α, LIGHT or FASL was coated in a microplate with a carbonate buffer solution at pH=9.6, 100 μL per well, and the microplate was incubated at 4° C. overnight. The microplate was then washed 5 times with PBST, blocked with 300 μL/well of PBS containing 1% BSA, and was incubated at room temperature for 1 hour. After washing 5 times with PBST, about 100 μL each of the M701 monoclonal antibodies and the control antibodies were added to each well, and were incubated at room temperature for 1 hour. After washing 5 times with PBST, 100 μL of HRP-anti-human Fc (Sino Biological) was added to each well, and was incubated at room temperature for 1 hour. After washing 5 times with PBST, 100 μL of colorimetric substrate TMB was added to each well, and color was developed at room temperature for 10 minutes, followed by addition of 1M sulfuric acid to terminate the reaction. OD450 nm was recorded on a microplate reader.

[2] = biological target: T2, LIGHT (UniProt O43557 74-240, limits assumed); assay: ELISA, coated LIGHT
T2 sequence (O43557 74-240 limits assumed): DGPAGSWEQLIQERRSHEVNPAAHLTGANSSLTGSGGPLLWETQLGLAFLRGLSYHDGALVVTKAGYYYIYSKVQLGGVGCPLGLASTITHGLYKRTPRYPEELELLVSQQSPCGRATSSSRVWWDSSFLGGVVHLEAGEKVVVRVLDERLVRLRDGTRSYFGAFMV
Experimental: as §1

[3] = biological target: T1, TNFα; assay: ELISA, coated TNF-α, Ab 25 nM
Experimental: as §1

[4] = biological target: T3, FASL (UniProt P48023 134-281, limits assumed); assay: ELISA, coated FASL, Ab 6.25 nM
T3 sequence (looked up): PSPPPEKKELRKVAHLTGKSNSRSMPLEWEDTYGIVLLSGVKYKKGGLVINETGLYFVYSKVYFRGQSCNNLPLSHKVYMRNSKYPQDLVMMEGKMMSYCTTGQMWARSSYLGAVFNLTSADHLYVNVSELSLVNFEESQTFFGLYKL
Experimental: as §1

[5] = biological target: T2, LIGHT; assay: ELISA, coated LIGHT, Ab 100 nM
Experimental: as §1

[6] = biological target: T4, LT-α (UniProt P01374 35-205); assay: ELISA, coated LT-α, Ab 6.25 nM
T4 sequence (looked up): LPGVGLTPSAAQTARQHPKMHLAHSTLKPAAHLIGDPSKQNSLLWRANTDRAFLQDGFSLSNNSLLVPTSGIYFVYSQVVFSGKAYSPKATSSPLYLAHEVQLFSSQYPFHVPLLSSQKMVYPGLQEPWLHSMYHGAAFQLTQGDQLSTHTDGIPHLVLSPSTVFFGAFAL
Experimental: as §1

[7] = biological target: T1, TNFα; assay: ELISA, coated TNF-α, Ab 100 nM
Experimental: as §1

[8] = biological target: T2, LIGHT; assay: ELISA, coated LIGHT, Ab 6.25 nM
Experimental: as §1

[9] = biological target: T4, LT-α; assay: ELISA, coated LT-α, Ab 0.391 nM
Experimental: as §1

[10] = biological target: T1, TNFα; assay: ELISA, coated TNF-α, Ab 6.25 nM
Experimental: as §1

[11] = biological target: T3, FASL; assay: ELISA, coated FASL, Ab 0.000 nM (blank)
Experimental: as §1

[12] = biological target: T2, LIGHT; assay: ELISA, coated LIGHT, Ab 0.000 nM (blank)
Experimental: as §1

[13] = biological target: T5, human TL1A (HuTL1A) (human, UniProt O95150 57-251, limits assumed, biotin-labelled in some assays (site not stated)); assay: DLS, antigen and antibody mixed in equal moles
T5 construct: Expressed in EXPI-293 cells and purified by Ni-NTA (His-tag); Described as a trimeric antigen; also called TL1A antigen; WT
T5 sequence: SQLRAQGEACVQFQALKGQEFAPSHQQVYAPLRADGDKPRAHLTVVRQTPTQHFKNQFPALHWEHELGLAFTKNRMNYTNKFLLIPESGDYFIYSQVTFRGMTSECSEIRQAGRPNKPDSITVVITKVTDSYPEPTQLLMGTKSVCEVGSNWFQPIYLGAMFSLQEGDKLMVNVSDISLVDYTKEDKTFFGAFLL
Experimental: 60 μM antigen and antibody was mixed in equal moles, incubated at room temperature for 30 minutes, and then the molecular size was detected using UNCLE or SEC.

[14] = biological target: T5, human TL1A (HuTL1A); assay: ELISA: biotin-HuTL1A on streptavidin plate, antibody diluted at pH 7.4, HRP-anti-human Fc, OD450
Experimental: (§2) Corresponding antibodies were added to specific wells, and the antibodies were diluted with sodium dihydrogen phosphate-citrate buffer at pH 7.4, pH 6.0, pH 5.8, or pH 5.6. Binding assay was carried out at room temperature for 30 minutes. After the incubation, the excess antibodies were removed and the wells were washed by PBST. HRP-anti-Human Fc (Sino Biological) was then added into each well and incubated for 30 minutes to detect the bound antibody. The substrate TMB was finally added to develop color for 5-10 minutes. The color development reaction was terminated with 1M sulfuric acid. OD450 nm was recorded on a microplate reader, and the data were processed and fitted by 4 parameter logistic regression.

[15] = biological target: T6, endogenous TL1A induced in PBMC by immune complexes (UniProt O95150 72-251, limits assumed); assay: cell-based or functional assay
T6 sequence (looked up): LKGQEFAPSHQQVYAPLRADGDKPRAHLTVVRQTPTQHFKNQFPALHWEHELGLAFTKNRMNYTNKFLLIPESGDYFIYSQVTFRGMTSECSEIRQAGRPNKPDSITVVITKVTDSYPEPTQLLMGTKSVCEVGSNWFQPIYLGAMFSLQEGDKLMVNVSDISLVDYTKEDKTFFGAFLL

[16] = biological target: T5, human TL1A (HuTL1A); assay: ELISA: biotin-HuTL1A on streptavidin plate, antibody diluted at pH 5.8, HRP-anti-human Fc, OD450
Experimental: as §2

T1 sequence (P01375 77-233 limits assumed): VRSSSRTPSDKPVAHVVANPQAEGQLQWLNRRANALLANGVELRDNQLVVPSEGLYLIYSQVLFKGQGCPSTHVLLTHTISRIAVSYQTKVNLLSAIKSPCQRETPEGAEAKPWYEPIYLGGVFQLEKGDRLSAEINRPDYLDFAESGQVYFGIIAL

B1: M701-3966 (antibody, human IgG1, kappa, L234A L235A, V domains shown)
VH: ELQLQESGPGLVKPSETLSLTCAVSGVSFSDYHWAWIRQPPGKGLEWIGDINHRGHTNYNPSLKSRVTVSIDTSKNQFSLKLSSVTAADTAVYFCARDFPNFIFDYWGQGTLVTVSS
VL: DIQLTQSPGTLSLSPGERATLSCRASQSVSSYLAWYQQKPGQAPRLLIYGASKRATGIPDRFSGSGSGTDFTLTISRLEPEDFAVYYCQQYGDSPLTFGQGTKVEIKR
notes: Fc-engineered IgG1
Question: Does B1 bind [1]?
Answer: no binding (tested: 100 nM)

Question: Does B1 bind [2]?
Answer: no binding (tested: 100 nM)

Question: And the OD450 nm [3]?
Answer: 0.0593

Question: What about the OD450 nm [4] of the same binder?
Answer: 0.0525

Question: And the OD450 nm [5]?
Answer: 0.0876

Question: What about the OD450 nm [6] of the same binder?
Answer: 0.06

Question: And the OD450 nm [7]?
Answer: 0.0787

Question: And the OD450 nm [8]?
Answer: 0.0568

Question: What about the OD450 nm [9] of the same binder?
Answer: 0.0604

Question: And the OD450 nm [10]?
Answer: 0.0511

Question: And the OD450 nm [11]?
Answer: 0.0692

Question: And the OD450 nm [12]?
Answer: 0.06

Question: And the “Ave Z-dia (nm) of the antigen-antibody complex” value [13]?
Answer: 18.6 nm

Question: And the “EC50 (read off the curve)” value [14]?
Answer: ~0.1 nM

B2: M701-4007 (antibody, human IgG1, kappa, L234A L235A, V domains shown)
VH: ELQLQESGPGLVKPSETLSLTCAVSGVSFSDYHWAWIRQPPGKGLEWIGDINHRGHTNYNPSLKSRVTVSIDTSKNQFSLKLSSVTAADTAVYFCARDFPNFIFDFWGQGTLVTVSS
VL: DIQLTQSPGTLSLSPGERATLSCRASQSVSTYLAWYQQKPGQAPRLLIYGASKRATGIPDRFSGSGSGTDFTLTISRLEPEDFAVYYCQQYGDSPLTFGQGTKVEIKR
notes: Fc-engineered IgG1
Question: Does B2 bind [1]?
Answer: no binding (tested: 100 nM)

Question: Does B2 bind [2]?
Answer: no binding (tested: 100 nM)

Question: And the OD450 nm [3]?
Answer: 0.0665

Question: What about the “IC50 (read off the curve); IFN-γ of PBMC stimulated with immune complex, IL-12 and IL-18” value [15] of the same binder?
Answer: ~0.5 nM

Question: And the OD450 nm [4]?
Answer: 0.0523

Question: And the OD450 nm [5]?
Answer: 0.0853

Question: What about the OD450 nm [6] of the same binder?
Answer: 0.0588

Question: What about the OD450 nm [7] of the same binder?
Answer: 0.079

Question: What about the OD450 nm [8] of the same binder?
Answer: 0.0542

Question: And the OD450 nm [9]?
Answer: 0.0576

Question: What about the OD450 nm [10] of the same binder?
Answer: 0.0553

Question: What about the OD450 nm [11] of the same binder?
Answer: 0.0648

Question: What about the OD450 nm [12] of the same binder?
Answer: 0.0568

Question: And the “Ave Z-dia (nm) of the antigen-antibody complex” value [13]?
Answer: 18.7 nm

Question: What about the “EC50 (read off the curve)” value [14] of the same binder?
Answer: ~0.1 nM

Question: What about the “EC50 (read off the curve)” value [16] of the same binder?
Answer: ~0.7 nM
